Publication PMC2737084 (Biochemistry, 2009)

Target: the molecule itself
Assay: SEC

B1: Pseudomonas aeruginosa bacterioferritin B (natural protein)
chain: not shown
**Q.** For B1, which “stoichiometry N” value is on record?
**A.** The value was 24.
